As a reminder, the KD is the free concentration of one partner at which half of the binding sites on the other are occupied at equilibrium, for simple one-to-one binding. The term Kd denotes the constant that tells how readily two partners part at equilibrium. Read a high Kd as weaker binding. By EC50 is commonly meant the midpoint of the concentration-response curve. Low readings indicate higher potency in that assay, high ones lower potency in that assay. As usually defined, the EC50 (read off the curve) is the concentration at which the effect is half-maximal.

Results on 3 molecules are retold here after patent publication US20230303699A1 (EXELIXIS, published 2023).

Experiment [1] addresses T1, human PD-L1-His tag (extracellular domain) (human, UniProt Q9NZQ7 19-238).
T1 construct: Bought from Acro Biosystems; also called Acro Cat. No. PD1H5229; soluble antigen
The experiment in a line: Octet BLI, monovalent; IgG on Fc capture sensor, soluble PD-L1-His. From the text: The bivalent interaction of binders to the biotinylated human PD-L1 (see Example 1) immobilized on a streptavidin biosensor was monitored using an Octet (Pall ForteBio) instrument. To monitor monovalent interaction, full-length IgG molecule was immobilized to a Fc capture biosensor and its interaction with soluble antigen was monitored using an Octet instrument.
First, the antibodies were immobilized on an Fc capture sensor. In the next association step, the binding interaction of PD-L1 (Acro Cat. No. PD1H5229 (PD-L1-His tag)) to the immobilized IgG was measured. […] Octet kinetic analysis software was used to calculate the kinetic and equilibrium binding constants from the rate of association and dissociation curves. The analysis was performed using global curve fit where kinetic constants were derived simultaneously from all analyte concentration included in the experiment.
A general note: BLI is a label-free optical method that tracks binding on a fibre tip over time.

In experiment [2] the target is T2, Mouse PD-L1 (mouse, UniProt Q9EP73 19-238, biotinylated).
T2 construct: Bought, biotinylated and immobilized on a streptavidin sensor; also called mPD-L1; Acro Cat. No. PD1-M5220
T2 sequence (Q9EP73 19-238 limits assumed): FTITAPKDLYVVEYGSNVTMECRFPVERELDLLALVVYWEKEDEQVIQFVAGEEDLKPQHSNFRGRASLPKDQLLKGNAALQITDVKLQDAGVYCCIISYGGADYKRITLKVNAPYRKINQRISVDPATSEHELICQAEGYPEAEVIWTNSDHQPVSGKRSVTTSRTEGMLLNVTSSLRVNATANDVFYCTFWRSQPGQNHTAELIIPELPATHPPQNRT
The experiment in a line: Octet BLI; biotinylated mouse PD-L1 on streptavidin sensor.

For experiment [3], the target named is T3, PD-L1 on PD-L1 overexpressing CHO-K1 cells (Homo sapiens (Human), UniProt Q9NZQ7 19-290). The experiment in a line: flow cytometry on PD-L1 CHO-K1 cells. As for the experimental part:
(§1) Cells were harvested at 70-90% confluence on the day of the assay. Cells were collected by centrifugation at 200×g for 5 minutes and media was removed. Cells were resuspended at 2×10⁶ cells per mL in cold PBS. […] 50 μL per well of the antibody dilution was plated in a 96 well V-bottom plate (Costar 3897). 50 μL per well of cell suspension was added. Plates were placed at 4° C. for 45-60 minutes.
(§2) Cells were collected by centrifugation at 400×g for 7 minutes and primary antibody was removed. […] Plates were placed at 4° C. for 30 minutes.
(§3) Cells were collected by centrifugation at 400×g for 7 minutes and secondary antibody was removed. Cells were resuspended in 50 μL per well of PBS and analyzed by flow cytometry. Binding curves were calculated using the mean fluorescence intensity (MFI) of the FITC fluorescence signal on the cells.
(Flow cytometry measures light scatter and fluorescence of single cells or particles in a stream.)

The target of experiment [4] is T3, PD-L1 on PD-L1 overexpressing CHO-K1 …. The experiment in a line: cell-based or functional assay.
Experiment [5] shares this target. The experiment in a line: flow cytometry on PD-L1 overexpressing CHO-K1 cells, AF488 goat anti human IgG Fab secondary, MFI. On the procedure:
as §1, §2, §3

For experiment [6] the target is unchanged. The experiment in a line: cell-based or functional assay. This is another data set of the same source.

Residue numbers refer to the chain shown, from its start.

T1 sequence (Q9NZQ7 19-238): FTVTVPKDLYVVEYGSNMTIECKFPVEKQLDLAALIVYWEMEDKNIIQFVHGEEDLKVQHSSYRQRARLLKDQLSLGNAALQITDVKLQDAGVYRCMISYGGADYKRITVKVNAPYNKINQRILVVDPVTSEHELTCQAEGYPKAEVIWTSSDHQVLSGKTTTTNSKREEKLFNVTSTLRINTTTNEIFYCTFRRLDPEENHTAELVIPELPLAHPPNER
T3 sequence (Q9NZQ7 19-290 limits assumed): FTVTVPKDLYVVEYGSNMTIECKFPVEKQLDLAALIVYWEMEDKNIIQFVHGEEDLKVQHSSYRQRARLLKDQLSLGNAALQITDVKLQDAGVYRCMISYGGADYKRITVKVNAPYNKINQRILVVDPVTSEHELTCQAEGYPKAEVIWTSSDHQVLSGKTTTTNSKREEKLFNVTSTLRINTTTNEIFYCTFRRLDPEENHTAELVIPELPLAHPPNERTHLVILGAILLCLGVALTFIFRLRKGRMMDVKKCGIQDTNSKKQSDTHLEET

B1: antibody designated P22 (antibody, human IgG1, kappa, V domains shown)
VH: EVQLVESGGGLVQPGGSLRLSCAASGFTFSSYYIHWVRQAPGKGLEWVAWITSHGYSTKYADSVKGRFTISADTSKNTAYLQMNSLRAEDTAVYYCARDSVIYGLDYWGQGTLVTAST
VL: DIQMTQSPSSLSASVGDRVTITCRASQSVSSAVAWYQQKPGKAPKLLIYSASSLYSGVPSRFSGSRSGTDFTLTISSLQPEDFATYYCQQYYTSPYTFGQGTKVEIKR
notes: Tested as full length IgG
For the molecule B1, in experiment [1], the KD is less than 20 nM and binding was put at a Kd of 17.2 nM. In addition, in experiment [2], the binding result was “no binding”. Besides, the response in experiment [3] was half-maximal at 0.523 nM (EC50). In addition, the “PD-1/PD-L1 Interaction Blocking Reporter Assay IC50” value in experiment [4] is 2.43 nM.

B2: antibody designated P24 (antibody, human IgG1, kappa, V domains shown)
VH: EVQLVESGGGLVQPGGSLRLSCAASGFTFDQYYIHWVRQAPGKGLEWVAEIYPAGSYTYYADSVKGRFTISADTSKNTAYLQMNSLRAEDTAVYYCARGPYSVRYALDYWGQGTLVTAST
VL: B1 VL with Y91V, Y92S, T93Y
notes: Tested as full length IgG
In experiment [1], B2 yielded a KD of less than 20 nM and a Kd of 17.5 nM. The binding result in experiment [2] is given as “no binding”. Further, the EC50 in experiment [3] turned out to be 1.62 nM. Also, in experiment [4], the “PD-1/PD-L1 Interaction Blocking Reporter Assay IC50” value turned out to be 4.98 nM. The “EC50 (read off the curve)” value in experiment [5] is approximately 2 nM.

B3: antibody designated P31.2 (antibody, human IgG1, kappa, V domains shown)
VH: EVQLVESGGGLVQPGGSLRLSCAASGFTFSSYYIHWVRQAPGKGLEWVATISSGGGFTYYADSVKGRFTISADTSKNTAYLQMNSLRAEDTAVYYCARGYTLTPVLDYWGQGTLVTAST
VL: B1 VL with Y91F, Y92G, T93A, S94E, Y96I
notes: Tested as full length IgG
Consider B3, for which the “IC50 (read off the curve)” value in experiment [6] is approximately 2 nM. In experiment [1], this molecule had a KD of less than 20 nM and a Kd of 13 nM. In addition, the binding result in experiment [2] is reported as “no binding”. In addition, the EC50 in experiment [3] came to 0.552 nM. Besides, the “PD-1/PD-L1 Interaction Blocking Reporter Assay IC50” value in experiment [4] stood at 1.23 nM.
